Patent US20020115167

Target: T1, Dishevelled (Dsh) protein, Drosophila, P51140
T1 chain: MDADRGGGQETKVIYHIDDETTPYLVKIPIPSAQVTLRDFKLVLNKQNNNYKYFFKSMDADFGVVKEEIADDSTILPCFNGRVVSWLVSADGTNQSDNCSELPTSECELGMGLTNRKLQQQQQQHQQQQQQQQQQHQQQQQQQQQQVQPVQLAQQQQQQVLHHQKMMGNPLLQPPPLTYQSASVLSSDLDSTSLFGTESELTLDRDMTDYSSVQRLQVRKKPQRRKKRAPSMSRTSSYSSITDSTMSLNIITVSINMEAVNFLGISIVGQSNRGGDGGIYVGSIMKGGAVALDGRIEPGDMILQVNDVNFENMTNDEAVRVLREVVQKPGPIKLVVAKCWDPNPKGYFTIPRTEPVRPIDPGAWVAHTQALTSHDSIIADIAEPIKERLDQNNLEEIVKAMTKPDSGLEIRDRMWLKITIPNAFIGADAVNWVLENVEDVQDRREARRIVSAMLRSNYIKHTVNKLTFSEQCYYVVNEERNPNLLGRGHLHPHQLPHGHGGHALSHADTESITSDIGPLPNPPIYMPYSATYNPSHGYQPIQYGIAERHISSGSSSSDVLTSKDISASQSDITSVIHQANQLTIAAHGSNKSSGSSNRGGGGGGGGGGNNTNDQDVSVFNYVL

B1: Drosophila PAR-1 (dPAR-1), the Dishevelled-associated kinase (protein)
chain: MSTAMRTTLQSVPEALPADSVSNGTASNVAAPAAPVSSATNAVPPLAAVSSTTATYATNSISTSSHSVKDQQQQQQQQQHDSANANIVSLPPTTTPVANTNTMMPIVTSSNSATSNSTAATPTPASGAAATGGVGSVSQGPATVSASAANTNHSHQHSHQHHHHVANNMTTDGARLSSNNSAVVASSAINHHHHHTPGSGVAPTVNKNVLSTHSAHPSAIKQRTSSAKGSPNMQMRSSAPMRWRATEEHIGKYKLIKTIGKGNFAKVKLAKHLPTGKEVAIKIIDKTQLNPGSLQKLFREVRIMKMLDHPNIVKLFQVIETEKTLYLIMEYASGGEVFDYLVLHGRMKEKEARVKFRQIVSAVQYCHQKRIIHRDLKAENLLLDSELNIKIADFGFSNEFTPGSKLDTFCGSPPYAAPELFQGKKYDGPEVDVWSLGVILYTLVSGSLPFDGSTLRELRERVLRGKYRIPFYMSTDCENLLRKFLVLNPAKRASLETIMGDKWMNMGFEEDELKPYIEPKADLADPKRIEALVAMGYNRSEIEASLSQVRYDDVFATYLLLGRKSTDPESDGSRSGSSLSLRNISGNDAGANAGSASVQSPTHRGVHRSISASSTKPSRRASSGAETLRVGPTNAAATVAAATGAVGAVNPSNNYNAAGSAADRASVGSNFKRQNTIDSATIKENTARLAAQNQRPASATQKMLTTADTTLNSPAKPRTATKYDPTNGNRTVSGTSGIIPRRSTTLYEKTSSTEKTNVIPAETKMASAVKSSRHFPRNVPSRSTFHSGQTRARNNTALEYSGTSGASGDSSHPGRMSFFSKLSSRFSKRPNQ
  in-gel in vitro kinase assay: these bands phosphorylated the Dsh substrate impregnated in the gel
